Assay results from the supplement of paper PMC10724198.

How the values were obtained:
Saccharomyces cerevisiae [1] = experiment: protein stability index of tFT-peptide fusion in deletion strain of DAS1 (PSI (0-1 scale)); higher = more stable (slower turnover)
Protocol: (§1)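 MPS profiling in S. cerevisiae of two library types built from selected 12-aa C-degron peptides (IN1, IN2, LN1, LN3, VN2, R1-R5, W1-W3, Atg1 and Rpa12 C-termini): saturation mutagenesis libraries and C-terminal +1 capping libraries (13 aa). Each peptide is fused to the C-terminus of a sfGFP-mCherry timer, after a GGGS linker. Cells are FACS-sorted into 8 mCherry/sfGFP bins and sequenced. PSI runs from 0 (unstable) to 1 (stable), measured once in wild type and in the das1Δ or doa10Δ background.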

Saccharomyces cerevisiae [2] = experiment: protein stability index of tFT-peptide fusion in wild type (PSI (0-1 scale)); higher = more stable (slower turnover); details: genetic background: wild type
Protocol: as §1
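Wherever protein stability index of tFT-peptide fusion in deletion strain of DAS1 is given: PSI is a weighted mean of each variant's read distribution over the sorted stability bins, computed only for variants having over 10 reads in total.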
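Wherever protein stability index of tFT-peptide fusion in wild type is given: PSI derived as read-weighted mean over the 8 sorting bins, only variants exceeding 10 total reads kept, mCherry placed adjacent to the peptide and sfGFP distal.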

Sequence	protein stability index (Saccharomyces cerevisiae [1])	protein stability index (Saccharomyces cerevisiae [2])
CTSCRYKFRTNN	0.68	0.395
FNMRWTFRYWVN	0.518	0.0433
FRGAVGGWRLVG	0.685	0.192
FSARWTFRYWVN	0.553	0.0651
FSMMWTFRYWVN	0.354	0.0586
FSMRWTERYWVN	0.572	0.0612
FSMRWTFCYWVN	0.365	0.0818
FSMRWTFFYWVN	0.44	0.104
FSMRWTFIYWVN	0.263	0.0416
FSMRWTFPYWVN	0.601	0.079
FSMRWTFRCWVN	0.425	0.17
FSMRWTFRTWVN	0.475	0.181
FSMRWTFRYEVN	0.509	0.168
FSMRWTFRYQVN	0.539	0.0962
FSMRWTFRYWFN	0.503	0.318
FSMRWTFRYWGN	0.547	0.19
FSMRWTFRYWIN	0.469	0.0567
FSMRWTFRYWTN	0.644	0.0691
FSMRWTFRYWVNV	0.5	0.147
FSMRWTFRYWVP	0.541	0.541
FSMRWTFRYWVS	0.547	0.181
FSMRWTFRYWVW	0.377	0.195
FSMRWTFRYWWN	0.497	0.271

Sequence	protein stability index (Saccharomyces cerevisiae [1])	protein stability index (Saccharomyces cerevisiae [2])
FSMRWTIRYWVN	0.38	0.0535
FSMRWTLRYWVN	0.438	0.0387
FSTRWTFRYWVN	0.62	0.0442
FSWRWTFRYWVN	0.756	0.0592
HRGAVGGWRLVG	0.665	0.172
HTSCGYKFRTNN	0.677	0.215
KCHKKGQKQKIN	0.592	0.342
KKDKKGQKQKIN	0.601	0.104
KKHHKGQKQKIN	0.588	0.0513
KKHKKFQKQKIN	0.599	0.0762
KKHKKGGKQKIN	0.653	0.169
KKHKKGKKQKIN	0.579	0.0795
KKHKKGQGQKIN	0.59	0.42
KKHKKGQKHKIN	0.588	0.228
KKHKKGQKQCIN	0.585	0.26
KKHKKGQKQKCN	0.584	0.312
KKHKKGQKQKIC	0.61	0.0636
KKHKKGQKQKID	0.611	0.547
KKHKKGQKQKINS	0.668	0.126
KKHKKGQKQKPN	0.722	0.617
KKHKKGQKQLIN	0.627	0.335
KKHKKGQKQTIN	0.571	0.362
KKHKKGQKWKIN	0.612	0.102

Sequence	protein stability index (Saccharomyces cerevisiae [1])	protein stability index (Saccharomyces cerevisiae [2])
KKHKKGQSQKIN	0.676	0.204
KKHKKGTKQKIN	0.608	0.0759
KKHKKGWKQKIN	0.682	0.0739
KKHKKGYKQKIN	0.607	0.113
KKHKKPQKQKIN	0.659	0.0387
KKHKMGQKQKIN	0.623	0.0496
KKKKKGQKQKIN	0.567	0.164
KKMKKGQKQKIN	0.758	0.0965
KMHKKGQKQKIN	0.857	0.1
LHILRQKMNHQN	0.662	0.105
LKILIQKMNHQN	0.695	0.217
LKILRGKMNHQN	0.674	0.297
LKILRQKMCHQN	0.68	0.217
LKILRQKMGHQN	0.672	0.541
LKILRQKMNGQN	0.659	0.353
LKILRQKMNHPN	0.688	0.672
LKILRQKMNHQI	0.67	0.179
LKILRQKMNHQL	0.67	0.172
LKILRQKMNHQNG	0.662	0.657
LKILRQKMNHQNI	0.685	0.65
LKILRQKMNHQNM	0.592	0.601
LKILRQKMNHQNW	0.67	0.659
LKILRQKMNHQP	0.677	0.373

Sequence	protein stability index (Saccharomyces cerevisiae [1])	protein stability index (Saccharomyces cerevisiae [2])
LKILRQKMNNQN	0.707	0.267
LKILRQKMTHQN	0.688	0.273
LKILRQKQNHQN	0.64	0.302
LKILRQKWNHQN	0.662	0.194
LKILRQKYNHQN	0.7	0.189
LKILRQQMNHQN	0.584	0.206
LKINRQKMNHQN	0.682	0.209
LKIRRQKMNHQN	0.687	0.246
LKITRQKMNHQN	0.674	0.229
LVILRQKMNHQN	0.675	0.135
LVVSLSCVACIN	0.0593	0.0181
LVVYASCVACIN	0.0371	0.023
LVVYFSCVACIN	0.0148	0.0194
LVVYLHCVACIN	0.0327	0.0158
LVVYLRCVACIN	0.0318	0.0199
LVVYLSCCACIN	0.138	0.0859
LVVYLSCIACIN	0.0218	0.0141
LVVYLSCLACIN	0.0537	0.0182
LVVYLSCVACIND	0.0356	0.0204
LVVYLSCVACING	0.0326	0.0204
